The source of these data is publication PMC3695229.

The target in one assay is TGF-β3 (Homo sapiens) (UniProt P10600). The conditions noted are these: cited from earlier work.
Another assay deals with TGF-β2 (Homo sapiens) (UniProt P61812). The conditions noted are these: cited from earlier work.
For another assay, the target named is TGF-β1 (Homo sapiens) (UniProt P01137). The conditions noted are these: cited from earlier work.
A further assay addresses TGFR-3-ZP(ΔC) (mouse) (UniProt O88393). The assay is described as follows: SEC; analytical SEC of the ligand-free protein on Superdex 200 10/300, 4°C, 0.5 ml/min; apparent molecular weight against standards. In general terms: Size exclusion chromatography separates by hydrodynamic size, large species first.
Assay [1] concerns the target P1-mZP (C-terminus mimetic peptide of murine TGFR-3-ZP, residues 735-782) (mouse) (UniProt O88393). The assay is described as follows: SPR; ProteOn XPR36; biotinylated peptides immobilised on neutravidin (300-600 RU), TGF-β2 as analyte; 25°C, HBS150 (10 mM HEPES pH 7.4, 150 mM NaCl, 3.4 mM EDTA, 0.005% Tween 20); kinetic fit 1:1 Langmuir with or without mass transfer; avidity of dimeric TGF-β2 expected.

Assay [2] has as its target P2-hZP (C-terminus mimetic peptide of human TGFR-3, residues 737-788) (human) (UniProt Q03167). Described as above.
Assay [3] has as its target P4-mZP (17mer peptide of murine TGFR-3, residues 732-748) (mouse) (UniProt O88393). The assay is described as above.
The target of assay [4] is P5-hZP (17mer peptide of human TGFR-3, residues 734-750) (human) (UniProt Q03167). The description is as above.

Sequence of TGFR-3 membrane-proximal ectodomain C-terminal half of ectodomain (P26342 410-781): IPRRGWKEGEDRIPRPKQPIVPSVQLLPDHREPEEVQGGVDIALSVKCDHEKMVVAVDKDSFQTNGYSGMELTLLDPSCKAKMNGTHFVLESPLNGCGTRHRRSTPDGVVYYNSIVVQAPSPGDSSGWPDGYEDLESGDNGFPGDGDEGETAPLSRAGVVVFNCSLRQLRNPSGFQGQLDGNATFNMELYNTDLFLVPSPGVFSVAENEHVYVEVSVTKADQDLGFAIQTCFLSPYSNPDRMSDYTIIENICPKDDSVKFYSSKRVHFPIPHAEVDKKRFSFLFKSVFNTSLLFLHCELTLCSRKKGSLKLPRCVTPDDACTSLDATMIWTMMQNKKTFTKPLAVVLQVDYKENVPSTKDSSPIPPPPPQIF
Sequence of P2-hZP (C-terminus mimetic peptide of human TGFR-3, residues 737-788) (human) (Q03167 737-788): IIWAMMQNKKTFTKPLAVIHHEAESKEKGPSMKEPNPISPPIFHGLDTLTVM
Sequence of P1-mZP (C-terminus mimetic peptide of murine TGFR-3-ZP, residues 735-782) (mouse) (O88393 735-782): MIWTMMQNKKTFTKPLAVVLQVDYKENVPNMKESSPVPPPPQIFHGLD
Sequence of TGF-β1 (Homo sapiens) (P01137 279-390): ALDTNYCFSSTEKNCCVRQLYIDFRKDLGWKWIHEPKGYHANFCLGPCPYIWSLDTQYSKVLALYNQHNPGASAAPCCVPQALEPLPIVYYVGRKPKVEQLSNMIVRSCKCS
Sequence of TGF-β3 (Homo sapiens) (P10600 301-412): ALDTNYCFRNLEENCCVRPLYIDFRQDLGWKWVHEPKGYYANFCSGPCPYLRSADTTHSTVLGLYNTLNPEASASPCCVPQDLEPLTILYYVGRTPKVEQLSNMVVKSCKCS
Sequence of TGF-β2 (Homo sapiens) (P61812 303-414): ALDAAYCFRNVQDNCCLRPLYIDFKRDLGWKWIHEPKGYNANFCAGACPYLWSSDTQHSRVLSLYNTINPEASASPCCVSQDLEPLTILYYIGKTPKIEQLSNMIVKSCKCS

On to “TGFR-3 membrane-proximal ectodomain C-terminal half of ectodomain (from UniProt P26342)”, for which the Kd was 5800 nM in the assay with TGF-β3 (Homo sapiens), 2600 nM with TGF-β2 (Homo sapiens) and 9700 nM with TGF-β1 (Homo sapiens).
By stoichiometry N is commonly meant the number of molecules, sites or subunits per partner or assembly. With “TGFR-3-ZP(ΔC) (from UniProt O88393 438-734) (domain or fragment)”, the stoichiometry N in the assay with TGFR-3-ZP(ΔC) (mouse) is 2.
In general, koff refers to the rate constant with which the complex falls apart. Lower therefore signals a long-lived complex. Usually kon stands for the rate constant with which the complex forms. A low value points to slow association. As to human TGF-β2 (ligand), the Kd worked out at 7.9 nM in assay [1], 15 nM in assay [2], 192 nM in assay [3] and 353 nM in assay [4]. Moreover, the koff in assay [1] amounted to 0.029 s⁻¹; in assay [2], 0.044 s⁻¹; in assay [3], 0.02 s⁻¹; in assay [4], 0.029 s⁻¹. For the same substance, the kon came to 5.2e+06 M⁻¹ s⁻¹ in assay [1], 4.4e+06 M⁻¹ s⁻¹ in assay [2], 110000 M⁻¹ s⁻¹ in assay [3] and 79000 M⁻¹ s⁻¹ in assay [4].
